Results reported in the supplement of paper PMC10567573.

B1: PTPN9 (parent)
chain: NKWTVQYNVSPLSWNVAVKFLMAR
B2: GLT8D2 (parent)
chain: QEAKLLHWNGRHKPWDFPSVHNDL

Variants of: B1
Assay: protein stability index of a GFP-peptide fusion (GPS, HEK-293T) (PSI 1-6); higher = more stable
Settings: c terminus: a fixed tail appended
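Also: lentivirally expressed fusions sorted by FACS into six bins by GFP to DsRed ratio, PSI derived from sequencing read proportions per bin multiplied by bin number.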

Variant | protein stability index
N8D | 2.07
N8C | 3.2
N8T | 2.15
N8Y | 3.61
N8A | 1.49
N8R | 2.26
N8P | 1.68
N8H | 2.26
N8L | 2.45
N8S | 2
K19N | 1.63
K19Q | 3.01
K19A | 1.74
K19P | 1.28
K19E | 3.72
K19C | 2.41
K19T | 2.69
K19L | 3.29

Variant | protein stability index
K19D | 3.33
K19Y | 3.14
K19R | 2.64
K19H | 3.44
K19F | 1.89
K19M | 2.06
S10M | 2.81
S10D | 2.26
S10I | 1.62
S10V | 3.2
S10C | 3.37
S10T | 3.21
S10Y | 1.82
S10A | 2.26
S10W | 2.48
S10N | 2.35
S10H | 2.23
S10F | 2.12

Variants of: B2
Assay: as above
Settings: c terminus: a fixed tail appended

Variant | protein stability index
G10C | 1.49
K4W | 2.7
Q1C | 1.75
Q1P | 2.85
Q1M | 2.35
S19I | 2.5
S19L | 1.96
P18M | 2.26
P18F | 2.18
P18T | 2.32
P18D | 3.06
P18H | 2.58
H7Y | 1.85
H7V | 2.1
H7N | 2.54
H7K | 2.48
E2A | 1.89
E2S | 2.04
E2H | 2.21
F17Y | 2.81
F17N | 2.85
F17T | 3.17
F17M | 3.22
L5V | 2.58

Variant | protein stability index
L5A | 3.04
K13M | 2.94
K13P | 3.04
D16T | 2.62
N22M | 2.01
L6S | 2.91
H21K | 2.75
W8F | 2.62
W8E | 3.47
L24A | 3.33
L24T | 3.41
L24F | 2.14
L24M | 2.98
V20W | 2.38
V20Q | 3.17
R11D | 3.33
R11L | 2.34
D23M | 1.92
H12R | 2.77
A3M | 3.06
A3Y | 2.19
W15L | 2.87
W15A | 3.7
W15E | 4.14
